This is an account of results in patent US20130184211A1 (NEW YORK UNIVERSITY, published 2013).

Assay [1] deals with T1, complex of V5-tagged FGFR1c and FLAG-tagged membrane-spanning murine Klotho isolated from transfected … (murine, UniProt O35082 35-1014).
T1 construct: Isolated from cell lysate on anti-V5 agarose beads; also called FGFR1c-Klotho complex (co-immunoprecipitated); binary FGFR-Klotho complex; not shown: FGFR1c, V5-tagged, expressed from a vector in HEK293-Klotho cells
The experiment in a line: co-immunoprecipitation competition; competitor FGF23^28-251. From the text:
(§1) Co-immunoprecipitation may also be used to determine that an agent specifically binds the binary FGFR-Klotho complex. One aspect of the present invention utilizes co-immunoprecipitation studies. Subconfluent cultures of a HEK293 cell line ectopically expressing the FLAG-tagged membrane-spanning form of murine Klotho were transfected with expression vectors for V5-tagged FGFR1c, FGFR3c, or FGFR4. Two days later, the cells were lysed, and FGFR-Klotho complexes were isolated from cell lysate using anti-V5 agarose beads. The beads were then incubated with either FGF23¹⁸⁰⁻²⁵¹ or FGF23²⁸⁻²⁵¹ alone, or with mixtures of FGF23²⁸⁻²⁵¹ with either increasing FGF23¹⁸⁰⁻²⁵¹ or increasing FGF23¹⁸⁰⁻²⁰⁵. Bead-bound proteins were resolved on SDS-polyacrylamide gels, transferred to nitrocellulose membranes, and labeled using antibodies to Klotho, FGF23, and V5 epitope tag.

In assay [2] the target is T2, complex of V5-tagged FGFR4 and FLAG-tagged membrane-spanning murine Klotho isolated from transfected … (murine, UniProt O35082 35-1014).
T2 construct: Isolated from cell lysate on anti-V5 agarose beads; also called FGFR4-Klotho complex; binary FGFR-Klotho complex; not shown: FGFR4, V5-tagged, expressed from a vector in HEK293-Klotho cells
The assay is described as above.
Source text: as §1

The target in assay [3] is T3, complex of V5-tagged FGFR3c and FLAG-tagged membrane-spanning murine Klotho isolated from transfected … (murine, UniProt O35082 35-1014).
T3 construct: Isolated from cell lysate on anti-V5 agarose beads; also called FGFR3c-Klotho complex; binary FGFR-Klotho complex; not shown: FGFR3c, V5-tagged, expressed from a vector in HEK293-Klotho cells
Nature of the assay: co-immunoprecipitation competition; competitor FGF23^28-251 (1 nM).
Source text: as §1

The target of assay [4] is T4, 1:1 binary complex of the ectodomains of FGFR1c and Klotho (human; murine, UniProt O35082 35-982).
T4 construct: range 35-982; also called FGFR1c-Klotho complex; binary FGFR1c-Klotho complex; not shown: C-terminal FLAG tag
T4 sequence 1: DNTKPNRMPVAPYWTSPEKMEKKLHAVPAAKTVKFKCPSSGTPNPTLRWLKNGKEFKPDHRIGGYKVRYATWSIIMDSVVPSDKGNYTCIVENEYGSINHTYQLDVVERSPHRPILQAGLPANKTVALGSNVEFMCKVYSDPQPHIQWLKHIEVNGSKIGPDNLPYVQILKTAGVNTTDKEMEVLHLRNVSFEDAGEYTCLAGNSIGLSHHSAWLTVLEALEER
T4 sequence 2: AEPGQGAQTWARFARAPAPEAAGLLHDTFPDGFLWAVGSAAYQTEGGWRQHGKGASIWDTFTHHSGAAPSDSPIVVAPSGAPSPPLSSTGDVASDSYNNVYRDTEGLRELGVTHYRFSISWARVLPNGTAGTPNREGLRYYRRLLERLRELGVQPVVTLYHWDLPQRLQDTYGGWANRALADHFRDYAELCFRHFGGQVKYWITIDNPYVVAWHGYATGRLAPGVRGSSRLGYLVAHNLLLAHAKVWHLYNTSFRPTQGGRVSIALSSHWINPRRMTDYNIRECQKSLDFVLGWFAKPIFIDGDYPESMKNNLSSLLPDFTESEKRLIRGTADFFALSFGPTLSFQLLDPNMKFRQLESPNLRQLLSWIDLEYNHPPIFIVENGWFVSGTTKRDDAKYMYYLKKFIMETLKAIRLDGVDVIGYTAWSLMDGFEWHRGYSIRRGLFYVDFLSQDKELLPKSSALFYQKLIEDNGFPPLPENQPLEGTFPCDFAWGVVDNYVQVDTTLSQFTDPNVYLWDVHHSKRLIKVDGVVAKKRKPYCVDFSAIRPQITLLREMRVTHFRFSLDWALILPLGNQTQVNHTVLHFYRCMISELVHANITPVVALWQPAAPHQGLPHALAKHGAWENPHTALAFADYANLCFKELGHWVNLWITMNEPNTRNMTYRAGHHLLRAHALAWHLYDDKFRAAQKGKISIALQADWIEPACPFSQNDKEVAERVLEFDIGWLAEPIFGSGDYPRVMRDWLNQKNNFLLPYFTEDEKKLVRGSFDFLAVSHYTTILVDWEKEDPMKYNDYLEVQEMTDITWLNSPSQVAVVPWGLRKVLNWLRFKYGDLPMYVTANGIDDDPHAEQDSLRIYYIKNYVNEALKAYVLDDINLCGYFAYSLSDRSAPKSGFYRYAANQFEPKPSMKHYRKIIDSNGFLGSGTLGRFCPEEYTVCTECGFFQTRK
The experiment in a line: SPR competition dose-response: FGF23^180-251 mixed with a fixed concentration of FGFR1c-Klotho, immobilized FGF23^28-251 as competitor; averaged data of two to three experiments. The method, then:
Increasing concentrations of FGF23²⁸⁻²⁵¹ (0-50 nM) were mixed with a fixed concentration of 1:1 complex of the ectodomains of FGFR1c and Klotho (15 nM and 20 nM, respectively) in HBS-EP buffer, and the mixtures were passed over the FGF23 chip. In the other—reverse—assay, FGF23¹⁸⁰⁻²⁵¹ was immobilized on a chip (˜48.4 fmole/mm² of flow channel). Increasing concentrations of FGF23²⁸⁻²⁵¹ (0-50 nM) were mixed with a fixed concentration of 1:1 complex of the ectodomains of FGFR1c and Klotho (20 nM) in HBS-EP buffer, and the mixtures were passed over the chip. As a control, competition of FGF23 C-terminal tail peptide in solution with immobilized FGF23 C-terminal tail peptide for binding to the binary FGFR1c-Klotho complex was studied. Increasing concentrations of FGF23¹⁸⁰⁻²⁵¹ (0-400 nM) were mixed with a fixed concentration of 1:1 complex of the ectodomains of FGFR1c and Klotho (20 nM) in HBS-EP buffer, and the mixtures were passed over the FGF23¹⁸⁰⁻²⁵¹ chip.
To fully nail down that the C-terminal tail of FGF23 mediates FGF23 binding to the binary FGFR1c-Klotho complex, a fixed concentration of FGFR1c-Klotho was mixed with increasing concentrations of FGF23¹⁸⁰⁻²⁵¹, and the mixtures were passed over the FGF23 chip. Mixtures of FGF23²⁸⁻²⁵¹ with FGFR1c-Klotho were used as a control. […]

T3 sequence (O35082 35-1014, one chain of several): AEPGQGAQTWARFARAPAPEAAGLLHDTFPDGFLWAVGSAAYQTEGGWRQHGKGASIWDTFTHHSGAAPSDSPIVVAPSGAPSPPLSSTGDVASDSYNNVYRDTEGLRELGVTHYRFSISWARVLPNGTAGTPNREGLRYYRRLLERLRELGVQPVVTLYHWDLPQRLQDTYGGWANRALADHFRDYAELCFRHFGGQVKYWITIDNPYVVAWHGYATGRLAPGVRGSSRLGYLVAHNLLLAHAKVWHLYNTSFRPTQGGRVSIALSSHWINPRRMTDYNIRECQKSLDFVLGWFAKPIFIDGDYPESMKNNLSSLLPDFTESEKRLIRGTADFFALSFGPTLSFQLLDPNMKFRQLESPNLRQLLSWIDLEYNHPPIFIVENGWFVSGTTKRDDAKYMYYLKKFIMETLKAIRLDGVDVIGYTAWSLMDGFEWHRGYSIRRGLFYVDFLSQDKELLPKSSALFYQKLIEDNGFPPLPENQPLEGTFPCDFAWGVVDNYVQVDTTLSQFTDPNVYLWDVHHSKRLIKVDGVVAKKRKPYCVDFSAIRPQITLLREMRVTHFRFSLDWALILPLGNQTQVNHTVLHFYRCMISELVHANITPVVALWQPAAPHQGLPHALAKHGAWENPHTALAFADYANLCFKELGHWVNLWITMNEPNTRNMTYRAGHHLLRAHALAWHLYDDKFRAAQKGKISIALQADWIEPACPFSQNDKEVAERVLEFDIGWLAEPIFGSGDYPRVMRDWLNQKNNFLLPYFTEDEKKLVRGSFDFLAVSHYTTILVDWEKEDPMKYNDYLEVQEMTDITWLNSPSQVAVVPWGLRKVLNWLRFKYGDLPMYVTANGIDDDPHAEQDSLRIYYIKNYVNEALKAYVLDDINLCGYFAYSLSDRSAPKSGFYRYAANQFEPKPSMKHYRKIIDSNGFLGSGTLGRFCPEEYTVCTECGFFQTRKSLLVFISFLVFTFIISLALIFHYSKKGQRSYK
T1 sequence (O35082 35-1014, one chain of several): as above
T2 sequence (O35082 35-1014, one chain of several): as above

B1: FGF23 C-terminal region peptide (S180 to S205), FGF23^180-205 (peptide)
peptide: SAEDDSERDPLNVLKPRARMTPAPAS
notes: Made by solid phase synthesis (GenScript)
Take B1: the “fold reduced potency compared to the FGF23^180-251 peptide” value in assay [1] was 100 fold; in assay [2] it was greater than 100 fold.

B2: N-terminally hexahistidine-tagged 72-amino acid C-terminal tail of human FGF23 (S180 to I251), FGF23^180-251 (peptide)
peptide: SAEDDSERDPLNVLKPRARMTPAPASCSQELPSAEDNSPMASDPLGVVRGGRVNTHAGGTGPEGCRPFAKFI
notes: Expressed in E. coli; also called FGF23 C-terminal tail peptide; C-terminal tail of FGF23; not shown: N-terminal hexahistidine tag (six His)
B2: the “molar excess over FGF23^28-251 that completely blocked its binding” value in assay [3] came to 76 fold molar excess. Further, the “IC50 (read off the curve)” value in assay [4] was roughly 50 nM.
